We go through one substance from patent publication US20120288878A1.

Experiment [1] concerns the target mutant membrane-bound TNFα on stably transfected CHO cells (B-220 cells) (UniProt P01375). Put plainly: FACS, gate P4: CHO cells bound to anti-CD19 beads (FIG. 3 middle panel). (Flow cytometry measures light scatter and fluorescence of single cells or particles in a stream.)
The target is the same in experiment [2]. The experiment in a line: FACS, gate P4: CHO cells bound to anti-CD19 beads, mixed beads (FIG. 4).

Chain of UniProt P01375 (P01375 other isoform, or with tags, fused parts or gaps mutant limits assumed): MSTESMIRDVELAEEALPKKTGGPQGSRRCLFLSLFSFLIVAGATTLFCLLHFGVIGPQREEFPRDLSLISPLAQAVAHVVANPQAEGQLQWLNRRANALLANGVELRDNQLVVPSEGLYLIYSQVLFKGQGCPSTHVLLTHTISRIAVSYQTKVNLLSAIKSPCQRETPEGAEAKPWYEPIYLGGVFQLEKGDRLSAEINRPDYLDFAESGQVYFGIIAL

As to “APC-labeled unrelated antibody (anti-CD19) coated on beads”, the # Events in experiment [1] was found to be 6 events; in experiment [2], 2 events.
